Measurements: US20250075191A1, “MODIFIED BIOLUMINESCENT ENZYMES” (Light Bio, Inc., priority 2023, published 2025)

Tests used:
Pichia pastoris GS115 = assay: Luminescence imaging of transformed yeast after addition of luciferin, hispidin or caffeic acid; assay type: cell-based
Protocol: Integration of plasmids into the genome of Pichia pastoris GS115 was targeted at the GAP promoter locus. Linearized plasmids were used for the transformation of electrically competent yeast cells. Colonies were selected using […] of G418 or 200 mg/ml of hygromycin or 50 mg/ml of zeocin. PCR-based screening of yeast colonies was done by heating up colonies in 10 μl of 20 mM NaOH at 90° C. for 7 min and then using 1 μl of the resulting solution for direct PCR. For luminescence imaging, yeast culture grown on plate was resuspended in 50 μL of 1M sorbitol. 5 μL of the suspension was then added in 3 replicates to YPD agar plates lacking antibiotics. […] Imaging was performed in Fusion Pulse (Vilber, France), with exposure of 0.1 or 5 sec every 3 or 5 min for 1.0-1.5 hours—for caffeic acid treatment, with exposure of 20 sec for 20 mins—for hispidin treatment, with exposure of 0.5 sec every 10 sec for 10 mins in case of luciferin treatment.
Processing of images was performed using FiJi ImageJ distribution (version 1.53t) 20 and custom Python scripts (Python version 3.8). For luminescence quantification mean values in the region of interest after background subtraction were used. Background subtraction was performed using the following formula: signal=signalraw−(backgroundmean−3*backgroundSD).

[1] = tested on: HEK293NT or HEK293 cell lines; assay: Pathway luminescence in transfected mammalian cells in the presence of caffeic acid; assay type: cell-based; settings: gene set expressing nnLuz_WT, mcitHispS, nnCPH, and NpgA
Protocol: In different sets of experiments, HEK293NT or HEK293 cell lines were seeded in 96-well plates (ibidi, ibiTreat μ-Plate 96 Well Black). Cells were transfected with a mixture of the five plasmids that encoded variants of nnLuz, and nnH3H, along with nnHispS or mcitHispS, nnCPH, and NpgA by PolyFect Transfection Reagent (QIAGEN) according to the manufacturer's protocol, using 2 μl PolyFect per well and a mixture of plasmids containing 44 ng of plasmid expressing nnLuz, and equivalent amounts of the other four plasmids according to their size. Transfected cells were grown in DMEM (PanEco) supplemented with 10% fetal bovine serum (HyClone), 4 mM L-glutamine, 10 U/ml penicillin and 10 µg/ml streptomycin, at 37° C. and 5% CO2. Twenty-four hours after transfection, the medium was changed to 25 μM or 100 μM caffeic acid solution (0.1% DMSO in DPBS) and luminescence was imaged for 23 minutes by IVIS Spectrum CT (PerkinElmer) at 37° C. every 9 seconds with open filter, binning of 16 and exposure of 5 seconds. The number of independent replicates is included in the figure's legends.

[2] = Luciferase luminescence in E. coli lysates after luciferin addition; assay type: biochemical; settings: 100 μM luciferin, maximal brightness
Excerpt: A library of amino acid substitutions was created applying mutagenesis to a gene encoding the luciferase derived from Neonothopanus nambi (SEQ ID NO: 8). pF4Ag shuttle vector (Promega) was used for gene expression in E. coli (T7 promoter-driven expression) and mammalian cells (CMV promoter-driven expression). The pF4Ag vector backbone introduces a C-terminal 3×-FLAG-HiBiT tag. Site-directed mutagenesis was used to substitute consensus amino acids at selected position in the luciferase sequence. Gene expression was performed in the E. coli strain KRX (Promega), which enables rhamnose-inducible expression of T7 RNA polymerase.
Colonies (in triplicate) were used to inoculate LB broth containing ampicillin ([…]) and cultures grown overnight in 96-well microtiter plates (20 hours, 37° C.). Cultures were diluted into fresh LB containing 0.1% rhamnose and ampicillin and grown for 3 hours at 37° C. 50 μl of the induced culture was lysed for 5 minutes at ambient temperature with a reagent consisting of 25 mM HEPES pH 7.5 and 0.3×PLB (E1941 Promega). 50 μl of lysate was combined with 50 μl luciferin (100 μM) in the lysis buffer and samples were measured for total luminescence using a GloMax®-Multi+luminometer. (Promega).

[3] = Enzyme thermostability in cleared E. coli lysates incubated at 22° C.; assay type: biochemical; settings: then 100 μM luciferin
Protocol: To assess the effect on enzyme thermostability by the amino acid substitutions, lysates of transformed E. coli were prepared by sonication and cleared by centrifugation. The cleared lysates were diluted 1:100 into Tris-buffered saline with 0.01% BSA and 0.1% n-dodecyl β-D-maltoside. 100 μl of each diluted lysate were added to a 96-well PCR plate. Samples were incubated at 22° C. and at various time points aliquots were placed on ice. When all of the samples were processed, 50 μl of each was combined with 50 μl of 100 μM luciferin in Tris-buffered saline with 0.01% BSA and 0.1% n-dodecyl β-D-maltoside. Samples were immediately placed in a GloMax®-Multi+luminometer (Promega) to measure bioluminescence.

HEK293 cells = assay: Luciferase luminescence by transient expression in HEK293 cells after luciferin addition; assay type: cell-based; settings: living HEK293 cells, luciferin 740 μM final concentration
Protocol: Production of luminescence by nnLuz_v3 was measure in E. coli lysates by the above method, and in mammalian cells (HEK293 cells). The HEK293 cells were transfected using the FugeneHD transfection reagent (Promega) according to the manufacturer's instructions. Cells were grown overnight under CO2 at 37° C. in 96-well white assay plates. For luminescence measurements, media was removed and replaced with 100 μl of CO2 independent media (Life Technologies 18045) containing 10% FBS. 33 μl of luciferin was added to cells (740 μM final concentration). The luminescence was measured using a GloMax-Multi+luminometer (Promega).

[4] = tested on: yeast cells (P. pastoris); assay: Stability of luciferase within yeast cells after 10 min incubation at different temperatures; assay type: cell-based; settings: then luciferin
Protocol: To evaluate stability of nnLuz_WT and nnLuz_v4 within yeast cells, strains expressing nnLuz WT or nnLux_v4 were grown on plates for 24 hours, then resuspended in PBS to final OD (600 nm)=5 and 50 μl was placed in wells of a 96-well PCR plate. Different portions of the plate were incubated at different temperatures for 10 minutes using a gradient thermal cycler. The plate were then placed on ice for 5 minutes and 10 μl of 500 μM luciferin (2% DMSO, 10 mM thioglycolic acid, 0.1% DDM in DPBS) were added to each well. Then 25 μl of suspension from each well was transferred to a black 96-well plate containing 0.2 M sodium phosphate buffer with 0.5 M Na2SO4,pH=8.

[5] = Michaelis-Menten kinetics of HiBiT-fused luciferase in yeast lysates; assay type: biochemical; settings: fitted Michaelis-Menten model
Excerpt: To quantify the activity of nnLuz_v4 relative to the parental nnLuz_WT, genetic fusions were made with the HiBiT tag. The HiBiT tag is a small bioluminescent marker that may be appended onto other proteins, thereby providing a mechanism for measuring relative protein concentration. By fusing the tag onto the C-terminus of luciferase, variability in protein concentration can be normalized across independent samples.
Yeast strains expressing fusions of nnLuz_WT and nnLuz_v4 with HiBiT were inoculated into YPD medium and cultured at 30° C. with 220 rpm for 18-20 hours. Then 4 ml of each yeast suspension were centrifuged at 5000 g (4° C.) and resuspended in 400 μL of 100 mM MOPS (pH=7.5), 4 mM EDTA, 2 mM TCEP, 1 mM PMSF. […]
Samples were diluted 25 fold in the same buffer as used for lysis and concentrated to a volume of 200 μL using Amicon Ultra-15 Centrifugal Filter Unit 10 kDa (Millipore). […] Luminescence was measured in Tecan Spark plate-reader with exposure of 500 ms for 15 min. Activity of each variant was normalized to the expression level of HiBiT, as quantified with HiBiT lytic reagent (Promega N3030).
To quantify luminescence, intensity values of the wells were normalized by the integral values for HiBiT luminescence kinetics. Then, the integral signal for each sample was calculated. […]

B1: nnH3H_v2: N. nambi hispidin hydroxylase with D37E, V181I, S323M, and M385K (SEQ ID NO: 6) (protein, listed as Neonothopanus nambi)
chain: MASFENSLSVLIVGAGLGGLAAAIALRRQGHVVKIYESSSFKAELGAGLAVPPNTLRSLQQLGCNTENLNGVDNLCFTAMGYDGSVGMMNNMTDYREAYGTSWIMVHRVDLHNELMRIALDPGGLGPPATLHLNHRVTFCDVDACTVTFTNGTTQSADLIVGADGIRSTIRRFVLEEDVTVPASGIVGFRWLVQADALDPYPELDWIVKKPPLGARLISTPQNPQSGVGLADRRTIIIYACRGGTMVNVLAVHDDERDQNTADWSVPASKDDLFRVFHDYHPRFRRLLELAQDINLWQMRVVPVLKKWVNKRVCLLGDAAHAMLPTLGQGFGMGLEDAVALGTLLPKGTTASQIETRLAVYEQLRKDRAEFVAAESYEEQYVPEKRGLYLRSKELRDRVMGYDIKVESEKVLETLLRSSNSA
bioluminescence relative to cells expressing nnH3H_WT and nnLuz_WT (Pichia pastoris GS115; co-expressed with nnLuz_WT, addition of 100 μM hispidin): greater bioluminescence | greater luminescence relative to nnH3H_WT (Pichia pastoris GS115; combined with nnLuz_WT, mcitHispS and NpgA, caffeic acid): 3.9 fold | greater luminescence compared with nnH3H_WT [1]: 2.5 fold

B2: nnLuz_v3: N. nambi luciferase with substitutions T99P, T192S, A199P combined (SEQ ID NO: 2) (protein, listed as Neonothopanus nambi)
chain: MRINISLSSLFERLSKLSSRSIAITCGVVLASAIAFPIIRRDYQTFLEVGPSYAPQNFRGYIIVCVLSLFRQEQKGLAIYDRLPEKRRWLADLPFREGPRPSITSHIIQRQRTQLVDQEFATRELIDKVIPRVQARHTDKTFLSTSKFEFHAKAIFLLPSIPINDPLNIPSHDTVRRTKREIAHMHDYHDCSLHLALAPQDGKEVLKKGWGQRHPLAGPGVPGPPTEWTFLYAPRNEEEARVVEMIVEASIGYMTNDPAGKIVENAK
production of bioluminescence relative to parental nnLuz [2]: substantially greater | enzyme stability relative to unmodified parental luciferase [3]: greater enzyme stability | production of bioluminescence relative to parental nnLuz_WT (HEK293 cells): substantially greater

B3: nnLuz_v4 (protein, listed as Neonothopanus nambi)
chain: MRSTISLSSLLERLSKLSSRSIAITCGVVLASAIAFPIIRRDYQTFLEVGPSYAPQNFRGYITVCVLSLFRQEQKGLAIYDRLPEKRRWLADLPFREGPRPSITSHIIQRQRTQLVDQEFATRELIDKVIPRVQARHTDKTFLSTSKFEFHAKAIFLLPSIPINDPLNIPSHDTVRRTKREIAHMHDYHDCSLHLALAPQDGKEVLKKGWGQRHPLAGPGVPGPPTEWTFLYAPRNEEEARVVEMIVEASIGYMTNDPAGKIVENAKGS
bioluminescence relative to cells expressing nnLuz_WT (Pichia pastoris GS115; addition of 50 μM luciferin): greater bioluminescence | greater luminescence relative to nnLuz_WT (Pichia pastoris GS115; combined with nnH3H_v2, mcitHispS and NpgA, caffeic acid): 1.9 fold | reduction of luminescence after incubation at 40° C. ([4]; 10 min at 40° C.): no loss of activity | reduction of luminescence after incubation at 45° C. ([4]; 10 min at 45° C.): 3 fold | Km relative to nnLuz_WT [5]: similar | higher Vmax relative to nnLuz_WT ([5]; normalized to HiBiT): 4.2 fold
